Assay results reported in patent US20220406376A1 (MacroGenics, published 2022).

T1: extracellular portion of cynomolgus monkey CD137 fused to a histidine-containing peptide (cynomolgus monkey, UniProt A9YYE7 24-186)
T1 construct: extracellular domain; also called cynoCD137
T1 sequence: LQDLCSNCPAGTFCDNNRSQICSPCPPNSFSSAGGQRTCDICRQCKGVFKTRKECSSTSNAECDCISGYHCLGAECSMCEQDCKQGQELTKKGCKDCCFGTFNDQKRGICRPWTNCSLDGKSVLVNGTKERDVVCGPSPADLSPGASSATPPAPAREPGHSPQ

B1: DART-G (bispecific antibody, human IgG1, kappa, L234A L235A)
heavy: QVQLVQSGAEVKKPGASVKVSCKASGYTFTNYGMNWVRQAPGQGLEWMGWINTNIGEPTYTEEFKGRVTMTRDTSISTAYMELSRLRSDDTAVYYCARDDGYGNRVSYWGQGTLVTVSSASTKGPSVFPLAPSSKSTSGGTAALGCLVKDYFPEPVTVSWNSGALTSGVHTFPAVLQSSGLYSLSSVVTVPSSSLGTQTYICNVNHKPSNTKVDKRVEPKSCDKTHTCPPCPAPEAAGGPSVFLFPPKPKDTLMISRTPEVTCVVVDVSHEDPEVKFNWYVDGVEVHNAKTKPREEQYNSTYRVVSVLTVLHQDWLNGKEYKCKVSNKALPAPIEKTISKAKGQPREPQVYTLPPSREEMTKNQVSLSCAVKGFYPSDIAVEWESNGQPENNYKTTPPVLDSDGSFFLVSKLTVDKSRWQQGNVFSCSVMHEALHNRYTQKSLSLSPGK
light: DIQMTQSPSSLSASVGDRVTITCKASQDISNYLSWFQQKPGKAPKTLIYRANRLQSGVPSRFSGSGSGTDFTLTISSLQPEDFATYYCLQHDEFPWTFGQGTKLEIKRTVAAPSVFIFPPSDEQLKSGTASVVCLLNNFYPREAKVQWKVDNALQSGNSQESVTEQDSKDSTYSLSSTLTLSKADYEKHKVYACEVTHQGLSSPVTKSFNRGEC
chain 1: QVQLVQSGAEVKKPGASVKVSCKASGYTFTNYGMNWVRQAPGQGLEWMGWINTNIGEPTYTEEFKGRVTMTRDTSISTAYMELSRLRSDDTAVYYCARDDGYGNRVSYWGQGTLVTVSSASTKGPSVFPLAPSSKSTSGGTAALGCLVKDYFPEPVTVSWNSGALTSGVHTFPAVLQSSGLYSLSSVVTVPSSSLGTQTYICNVNHKPSNTKVDKRVEPKSCDKTHTCPPCPAPEAAGGPSVFLFPPKPKDTLMISRTPEVTCVVVDVSHEDPEVKFNWYVDGVEVHNAKTKPREEQYNSTYRVVSVLTVLHQDWLNGKEYKCKVSNKALPAPIEKTISKAKGQPREPQVYTLPPSREEMTKNQVSLWCLVKGFYPSDIAVEWESNGQPENNYKTTPPVLDSDGSFFLYSKLTVDKSRWQQGNVFSCSVMHEALHNHYTQKSLSLSPGGGGSGGGSGGGDIQMTQSPSSLSASVGDRVTITCRPSQDISNYLNWYQQKPDKTVKLLIYYTSRLRSGVPSRFSGSGSGTDFTFTISSLQPEDIATYFCQQGDTLPYTFGQGTKLEIKGGGSGGGGQVQLVQSGAEVKKPGASVKVSCKASGYTFTSYWINWVKQAPGQGLEWIGNIYPSDSYTNYNQKFKDKATITADKSTSTAYMELSSLRSEDTAVYYCTRDYGSSYSFDYWGQGTTVTVSSGGCGGGEVAALEKEVAALEKEVAALEKEVAALEK
chain 2: DIQMTQSPSSLSASVGDRVTITCRPSQDISNYLNWYQQKPDKTVKLLIYYTSRLRSGVPSRFSGSGSGTDFTFTISSLQPEDIATYFCQQGDTLPYTFGQGTKLEIKGGGSGGGGQVQLVQSGAEVKKPGASVKVSCKASGYTFTSYWINWVKQAPGQGLEWIGNIYPSDSYTNYNQKFKDKATITADKSTSTAYMELSSLRSEDTAVYYCTRDYGSSYSFDYWGQGTTVTVSSGGCGGGKVAALKEKVAALKEKVAALKEKVAALKE
B2: DART-D (bispecific antibody, human IgG1, kappa, L234A L235A)
heavy: B1 heavy
light: B1 light
chain 1: QVQLVQSGAEVKKPGASVKVSCKASGYTFTNYGMNWVRQAPGQGLEWMGWINTNIGEPTYTEEFKGRVTMTRDTSISTAYMELSRLRSDDTAVYYCARDDGYGNRVSYWGQGTLVTVSSASTKGPSVFPLAPSSKSTSGGTAALGCLVKDYFPEPVTVSWNSGALTSGVHTFPAVLQSSGLYSLSSVVTVPSSSLGTQTYICNVNHKPSNTKVDKRVEPKSCDKTHTCPPCPAPEAAGGPSVFLFPPKPKDTLMISRTPEVTCVVVDVSHEDPEVKFNWYVDGVEVHNAKTKPREEQYNSTYRVVSVLTVLHQDWLNGKEYKCKVSNKALPAPIEKTISKAKGQPREPQVYTLPPSREEMTKNQVSLWCLVKGFYPSDIAVEWESNGQPENNYKTTPPVLDSDGSFFLYSKLTVDKSRWQQGNVFSCSVMHEALHNHYTQKSLSLSPGGGGSGGGSGGGDIQMTQTTSSLSASLGDRVTISCRPSQDISNYLNWYQQKPDGTVKLLIYYTSRLRSGVPSRFSGSGSGTDYSLTISNLEQEDIATYFCQQGDTLPYTFGGGTKLEIKGGGSGGGGQVQLQQPGAELVRPGASVKLSCKASGYTFTSYWINWVKQRPGQGLEWIGNIYPSDSYTNYNQKFKDKATLTVDKSSSTAYMQLSSPTSEDSAVYYCTRDYGSSYSFDYWGQGTTLTVSSGGCGGGEVAALEKEVAALEKEVAALEKEVAALEK
chain 2: DIQMTQTTSSLSASLGDRVTISCRPSQDISNYLNWYQQKPDGTVKLLIYYTSRLRSGVPSRFSGSGSGTDYSLTISNLEQEDIATYFCQQGDTLPYTFGGGTKLEIKGGGSGGGGQVQLQQPGAELVRPGASVKLSCKASGYTFTSYWINWVKQRPGQGLEWIGNIYPSDSYTNYNQKFKDKATLTVDKSSSTAYMQLSSPTSEDSAVYYCTRDYGSSYSFDYWGQGTTLTVSSGGCGGGKVAALKEKVAALKEKVAALKEKVAALKE

Columns and labels:
[1] = target: T1, extracellular portion of cynomolgus …; experiment: SPR (BIACORE); molecule captured on anti-human Fc; cynoCD137 6.25-100 nM; 1:1 Langmuir
Procedure: (§1) The amino acid sequences of these clones were incorporated into the 5 chain diabody DART-G to yield optimized DART-G molecules (designated as DART-G1, DART-G2; DART-G3, and DART-G4). The binding affinity of DART-G2, DART-G3, and DART-G4 were evaluated via BIAcore (Table 11). For such evaluation, His-tagged soluble human CD137 (huCD137) or cynomolgus monkey CD137 (cynoCD137) (containing an extracellular portion of human or cynomolgus monkey CD137 fused to a histidine-containing peptide) was passed over a surface coated with immobilized antibody. Briefly, each test molecule was captured onto an F(ab)₂ goat-anti-human Fc-coated surface and then incubated in the presence of different concentrations (6.25-100 nM) of huCD137 or cynoCD137. The kinetics of binding were determined via BIACORE® analysis binding (normalized 1:1 Langmuir binding model).

[2] = target: T1, extracellular portion of cynomolgus …; experiment: SPR (BIACORE); molecule captured on anti-human Fc; cynoCD137 6.25-100 nM; column head ×10^-4 applied as printed
Procedure: as §1

[3] = target: T2, CD137 on the surface of cells (activated human T cells; engineered CHO cells) (human, UniProt Q07011 24-255); experiment: flow cytometry on activated pan T cells (donor D46433, CD8 PE), anti-hFc APC MFI
T2 construct: whole, on cells; also called human CD137; cell surface expressed CD137
T2 sequence (Q07011 24-255, change not shown): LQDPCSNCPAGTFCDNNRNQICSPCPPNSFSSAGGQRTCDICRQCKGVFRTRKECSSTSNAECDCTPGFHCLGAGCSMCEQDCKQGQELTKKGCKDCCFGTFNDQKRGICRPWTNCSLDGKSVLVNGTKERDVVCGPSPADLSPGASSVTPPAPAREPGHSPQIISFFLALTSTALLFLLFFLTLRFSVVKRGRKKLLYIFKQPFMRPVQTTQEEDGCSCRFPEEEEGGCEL

[4] = target: T2, CD137 on the surface of cells …; experiment: flow cytometry on CD137-expressing CHO cells (CHO/137), anti-hFc APC MFI
[5] = target: T2, CD137 on the surface of cells …; experiment: flow cytometry on activated CD8+ T cells (donor D53781, CD8 FITC), anti-hFc APC MFI
[6] = target: T3, HER2/neu on the surface of target cells (N87, JIMT-1, MCF-7, MDA-MB231) (UniProt P04626 23-1255, limits assumed); experiment: flow cytometry on JIMT-1 cells, anti-hFc APC MFI
T3 construct: whole, on cells
Procedure: (§2) CD137×TA Binding Molecules, DART-B, DART-D, DART-G and the control molecules DART-3 and DART-6 were additionally evaluated for their ability to bind to HER2/neu expressed on N87 cells (FIG. 13A) and JIMT-1 cells (FIG. 13B). For such evaluation, 100 μL of HER2/neu expressing target cells (1.0×1⁰⁶ cells/mL) and 100 μL of serially diluted (5- or 10-fold dilutions) test article (bispecific diabody) were added to each well of microtiter assay plate(s), mixed and incubated at RT for 45 min. The cells were washed with FACS Buffer and secondary antibody (anti-human-Fc region-APC) was then added to each well; mixed and incubated at RT for 30 min. Cells were washed and resuspended in 100 μL FACS Buffer and analyzed by flow cytometry (BD LSR Fortessa or FACSCanto 11) for cell event collection. Data analysis were performed via FloJo v10.

[7] = target: T4, extracellular portion of human CD137 fused to a histidine-containing peptide (human, UniProt Q07011 24-186); experiment: SPR (BIACORE); molecule captured on anti-human Fc; huCD137 6.25-100 nM; 1:1 Langmuir
T4 construct: extracellular domain; also called huCD137; His-tagged soluble human CD137
Procedure: as §1

[8] = target: T3, HER2/neu on the surface of target cells …; experiment: flow cytometry on MCF-7 cells, anti-hFc APC MFI
[9] = target: T2, CD137 on the surface of cells …; experiment: flow cytometry on CD137-expressing CHO cells (CHO/137), anti-hFc APC MFI; remark: listed apart in the source
[10] = target: T3, HER2/neu on the surface of target cells …; experiment: flow cytometry on N87 cells, anti-hFc APC MFI
[11] = target: T3, HER2/neu on the surface of target cells …; experiment: flow cytometry on JIMT-1 cells, anti-hFc APC MFI; remark: listed apart in the source
[12] = target: T2, CD137 on the surface of cells …; experiment: flow cytometry on activated CD8+ T cells (CD8 FITC), anti-hFc APC MFI
[13] = target: T3, HER2/neu on the surface of target cells …; experiment: flow cytometry on N87 cells, anti-hFc APC MFI; remark: listed apart in the source
Procedure: as §2

[14] = target: T3, HER2/neu on the surface of target cells …; experiment: flow cytometry on N87 gastric cancer cells, anti-hFc APC MFI
[15] = target: T2, CD137 on the surface of cells …; experiment: flow cytometry on activated pan T cells gated CD8, anti-hFc APC MFI
[16] = target: T2, CD137 on the surface of cells …; experiment: as above; remark: listed apart in the source
[17] = target: T3, HER2/neu on the surface of target cells …; experiment: flow cytometry on N87 gastric cancer cells, anti-hFc APC MFI; remark: listed apart in the source

Binder | Kd [1] [nM] | kon [1] [M⁻¹ s⁻¹] | koff [2] [s⁻¹] | EC50 (read off the curve) [3] [nM] | EC50 (read off the curve) [4] [µg/mL] | EC50 (read off the curve) [5] [µg/mL] | EC50 (read off the curve) [6] [µg/mL] | Kd [7] [nM] | koff [7] [s⁻¹] | kon [7] [M⁻¹ s⁻¹] | EC50 (read off the curve) [8] [nM] | EC50 (read off the curve) [9] [µg/mL] | EC50 (read off the curve) [10] [nM] | EC50 (read off the curve) [11] [nM] | EC50 (read off the curve) [12] [µg/mL] | EC50 (read off the curve) [13] [µg/mL] | EC50 (read off the curve) [14] [nM] | EC50 (read off the curve) [15] [nM] | EC50 (read off the curve) [16] [nM] | EC50 (read off the curve) [17] [nM]
B1 | 115 | 390000 | 0.045 | ~0.1 | ~0.02 | ~0.03 | ~0.04 | 114 | 0.042 | 370000 | ~0.09 | ~0.02 | ~0.5 | ~0.2 | ~0.03 | ~0.1 |  |  |  | 
B2 | 67 | 460000 | 0.031 |  |  |  | ~0.03 | 53 | 0.025 | 470000 |  | ~0.02 |  |  | ~0.02 | ~0.07 | ~0.5 | ~0.2 | ~0.2 | ~0.5
